Measurements taken from patent US20090291081A1 (AbbVie / Abbott, published 2009).
Read-outs that look alike come from different tables or passages of the source. Each block holds one binder with its values, some of them ahead of it.

Legend:
[1] = biological target: T1, human IL-1α (human, UniProt P01583 113-271); assay: BIAcore (SPR)
T1 construct: also called IL-1alpha; hIL-1α
T1 sequence (looked up): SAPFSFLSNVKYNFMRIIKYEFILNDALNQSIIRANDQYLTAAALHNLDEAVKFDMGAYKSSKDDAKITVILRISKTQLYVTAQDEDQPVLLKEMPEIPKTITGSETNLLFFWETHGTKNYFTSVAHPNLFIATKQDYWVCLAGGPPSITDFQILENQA

[2] = biological target: T1, human IL-1α; assay: cell-based or functional assay
[3] = biological target: T1, human IL-1α; assay: cell-based or functional assay; remark: listed apart in the source
[4] = biological target: human IL-1β (human, UniProt P01584 117-269); assay: cell-based or functional assay
[5] = biological target: T2, human IL-1α (human, UniProt P01583 113-271); assay: cell-based or functional assay; remark: listed apart in the source
T2 sequence (looked up): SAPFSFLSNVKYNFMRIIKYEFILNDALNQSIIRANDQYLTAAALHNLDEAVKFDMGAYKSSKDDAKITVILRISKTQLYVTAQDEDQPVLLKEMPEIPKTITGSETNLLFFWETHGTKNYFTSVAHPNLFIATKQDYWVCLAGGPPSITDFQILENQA

[6] = biological target: T3, human IL-1β (human, UniProt P01584 117-269); assay: BIAcore (SPR)
T3 construct: also called IL-1beta; hIL-1β

[7] = biological target: T3, human IL-1β; assay: cell-based or functional assay; remark: listed apart in the source
[8] = biological target: T1, human IL-1α; assay: Table 62 IC50; RBA presumed
[9] = biological target: T1, human IL-1α; assay: Table 62 KD; BIAcore presumed
[10] = biological target: T2, human IL-1α; assay: cell-based or functional assay; remark: listed apart in the source

B1: ABT1-96 (other)
VH: EVQLLESGGGLVQPGGSLRLSCAASGFTFNQYNMFWVRQAPGKGLEWVSVISGSGRFTYYADSVKGRFTISRDNSKNTLYLQMNSLRAEDTAVYYCAKGWWRRDPPFDYWGQGTLVTVSS
notes: VH dAb
Kd [1]: 1.1 nM | MRC5 ND50 [2]: 11 nM | ND50 [3]: 17 nM

B6: ABT2-46 (other)
VL: DIQMTQSPSSLSASVGDRVTITCRASQSIIEWLSWYQQKPGKAPKLLIYRTSVLQSGVPSRFSGSGSGTDFTLTISSLQPEDFATYYCQQNEFWPFTFGQGTKVEIKR
notes: VK dAb
Kd [6]: 2800 nM | MRC5 ND50 [7]: 386 nM

B12: ABT1-98 (other)
VH: EVQLLESGGGLVQPGGSLRLSCAASGFTFDGYIMSWVRQAPGKGLEWVSTISPLGSVTYYADSVKGRFTISRDNSKNTLYLQMNSLRAEDTAVYYCAKKGPWFDYWGQGTLVTVSS
notes: VH dAb
Kd [1]: 13 nM | MRC5 ND50 [2]: 30 nM | ND50 [3]: < 100 nM

B13: ABT1-6-23 (other)
VH: EVQLLESGGGLVQPGGSLRLSCAASGFTFVRYDMAWVRQAPGKGLEWVSSIYKSGALTSYADSVKGRFTISRDNSKNTLYLQMNSLRAEDTAVYYCAKGWASFDYWGQGTLVTVSS
notes: VH dAb
IC50 [8]: 30 nM | Kd [1]: 61 nM | Kd [9]: 6 nM | ND50 [3]: 30 nM

B14: ABT1-86 (other)
VH: EVQLLESGGGLVQPGGSLRLSCAASGFTFDRYIMAWVRQAPGKGLEWVSSITPSGAATYYADSVKGRFTISRDNSKNTLYLQMNSLRAEDTAVYYCAEEPADRYSTWTFDYWGQGTLVTVSS
notes: VH dAb
IC50 [8]: 1000 nM | Kd [1]: 110 nM | MRC5 ND50 [2]: 900 nM | ND50 [3]: 900 nM

B15: ABT1-95-A3 (other)
VL: DIQMTQSPSSLSASVGDRVTITCRASKPGVRNMRWYQQKPGKAPKLLIYSVSYLEPGVPSRFSGSGSGTDFTLTISSLQPEDFATYHCLQGYRWPPTFGQGTKVEIKR
MRC5 ND50 [10]: 11 pM

B16: ABT1-95-181 (other)
VL: DIQMTQSPSSLSASVGDRVTITCRASKPIVRNMRWYQQKPGKAPKLLIYSVSYLEPGVPSRFSGSGSGTDFTLTISSLQPEDFATYHCLQGYRWPPTFGQGTKVEIKR
MRC5 ND50 [10]: 14 pM

B17: ABT1-95-A6 (other)
VL: DIQMTQSPSSLSASVGDRVTITCRASKPGVRNMRWYQQKPGKAPKLLIYAKSYLEPGVPSRFSGSGSGTDFTLTISSLQPEDFATYHCKQGYRWPVQFGQGTKVEIKR
MRC5 ND50 [10]: 24 pM

B18: ABT1-95-A5 (other)
VL: DIQMTQSPSSLSASVGDRVTITCRASRTPVRNLRWYQQKPGKAPKLLIYSRSFLEPGVPSRFSGSGSGTDFTLTISSLQPEDFATYHCLQGYRWPPTFGQGTKVEIKR
MRC5 ND50 [10]: 16 pM

B21: ABT1-95 (other)
VL: DIQMTQSPSSLSASVGDRVTITCRASQPIHGNLRWYQQKPGKAPKLLIYNISNLQSGVPSRFSGSGSGTDFTLTISSLQPEDFATYYCQQGYRWPVTFGQGTKVEIKR
notes: VK dAb
IC50 [8]: 500 nM | Kd [1]: 45 nM | MRC5 ND50 [2]: 800 nM | ND50 [3]: 800 nM

B22: ABT2-13 (other)
VH: EVQLLESGGGLVQPGGSLRLSCAASGFTFRDYVMYWARQAPGKGLEWVSRIDPMGSSTYYADSVKGRFTISRDNSKNTLYLQMNSLRAEDTAVYYCAKPEGNFDYWGQGTLVTVSS
notes: VH dAb
Kd [6]: 930 nM | MRC5 ND50 [7]: ~1000 nM

B23: ABT1-122 (other)
VL: DIQMTQSPSSLSASVGDRVTITCRASQPIWTELNWYQQKPGKAPKLLIYGSSSLQSGVPSRFSGSGSGTDFTLTISSLQPEDFATYYCQQFAYFPATFGQGTKVEIKR
notes: VK dAb
IC50 [8]: 80 nM | Kd [1]: 42 nM | MRC5 ND50 [2]: 50 nM | ND50 [3]: 100 nM

B24: ABT1-141 (other)
VL: DIQMTQSPSSLSASVGDRVTITCRASQWIQKQLAWYQQKPGKAPKLLIYSSSYLQSGVPSRFSGSGSGTDFTLTISSLQPEDFATYYCQQHLRVPFTFGQGTKVEIKR
notes: VK dAb
Kd [1]: 300 nM | MRC5 ND50 [2]: 50 nM | ND50 [3]: 142 nM

Further lines, results first:

Fab IL-1β ND10 [4]: 300 nM | Fab IL-1α ND10 [5]: 80 nM
B2: Fab ABT1-141/ABT2-65 (Fab, V domains shown)
VH: EVQLLESGGGLVQPGGSLRLSCAASGFTFEDYQMGWVRQAPGKGLEWVSSISAMGNRTYYADSVKGRFTISRDDSKNTLYLQMNSLRAEDTAVYYCAKNLVRTQSKMWMFDYWGQGTLVTVSS
VL: DIQMTQSPSSLSASVGDRVTITCRASQWIQKQLAWYQQKPGKAPKLLIYSSSYLQSGVPRFSGSGSGTDFTLTISSLQPEDFATYYCQQHLRVPFTFGQGTKVEIKR

Fab IL-1β ND10 [4]: 1500 nM | Fab IL-1α ND10 [5]: 40 nM
B3: Fab ABT1-122/ABT2-65 (Fab, V domains shown)
VH: EVQLLESGGGLVQPGGSLRLSCAASGFTFEDYQMGWVRQAPGKGLEWVSSISAMGNRTYYADSVKGRFTISRDDSKNTLYLQMNSLRAEDTAVYYCAKNLVRTQSKMWMFDYWGQGTLVTVSS
VL: DIQMTQSPSSLSASVGDRVTITCRASQPIWTELNWYQQKPGKAPKLLIYGSSSLQSGVPRFSGSGSGTDFTLTISSLQPEDFATYYCQQFAYFPATFGQGTKVEIKR

Kd [6]: 28 nM | MRC5 ND50 [7]: 266 nM
B4: ABT2-65 (other)
VH: EVQLLESGGGLVQPGGSLRLSCAASGFTFEDYQMGWVRQAPGKGLEWVSSISAMGNRTYYADSVKGRFTISRDDSKNTLYLQMNSLRAEDTAVYYCAKNLVRTQSKMWMFDYWGQGTLVTVSS
notes: VH dAb

Fab IL-1β ND10 [4]: 150 nM | Fab IL-1α ND10 [5]: 4 nM
B5: Fab ABT1-6-23/ABT2-46 (Fab, V domains shown)
VH: EVQLLESGGGLVQPGGSLRLSCAASGFTFVRYDMAWVRQAPGKGLEWVSSIYKSGALTSYDSVKGRFTISRDNSKNTLYLQMNSLRAEDTAVYYCAKGWASFDYWGQGTLVTVSS
VL: DIQMTQSPSSLSASVGDRVTITCRASQSIIEWLSWYQQKPGKAPKLLIYRTSVLQSGVPSRFSGSGSGTDFTLTISSLQPEDFATYYCQQNEFWPFTFGQGTKVEIKR

Fab IL-1β ND10 [4]: 400 nM | Fab IL-1α ND10 [5]: 6 nM
B7: Fab ABT1-96/ABT2-46 (Fab, V domains shown)
VH: EVQLLESGGGLVQPGGSLRLSCAASGFTFNQYNMFWVRQAPGKGLEWVSVISGSGRFTYADSVKGRFTISRDNSKNTLYLQMNSLRAEDTAVYYCAKGWWRRDPPFDYWGQGTLVTVSS
VL: DIQMTQSPSSLSASVGDRVTITCRASQSIIEWLSWYQQKPGKAPKLLIYRTSVLQSGVPSRFSGSGSGTDFTLTISSLQPEDFATYYCQQNEFWPFTFGQGTKVEIKR

Fab IL-1β ND10 [4]: > 500 nM | Fab IL-1α ND10 [5]: 40 nM
B8: Fab ABT1-6-23/ABT2-13 (Fab, V domains shown)
V domain 1: EVQLLESGGGLVQPGGSLRLSCAASGFTFVRYDMAWVRQAPGKGLEWVSSIYKSGALTSYDSVKGRFTISRDNSKNTLYLQMNSLRAEDTAVYYCAKGWASFDYWGQGTLVTVSS
V domain 2: EVQLLESGGGLVQPGGSLRLSCAASGFTFRDYVMYWARQAPGKGLEWVSRIDPMGSSTYYADSVKGRFTISRDNSKNTLYLQMNSLRAEDTAVYYCAKPEGNFDYWGQGTLVTVSS

Fab IL-1β ND10 [4]: 1500 nM | Fab IL-1α ND10 [5]: 100 nM
B9: Fab ABT1-98/ABT2-76 (Fab, V domains shown)
VH: EVQLLESGGGLVQPGGSLRLSCAASGFTFDGYIMSWVRQAPGKGLEWVSTISPLGSVTYYADSVKGRFTISRDNSKNTLYLQMNSLRAEDTAVYYCAKKGPWFDYWGQGTLVTVSS
VL: DIQMTQSPSSLSASVGDRVTITCRASQSIDRWLAWYQQKPGKAPKLLIYRGSILQSGVPSRFSGSGSGTDFTLTISSLQPEDFATYYCQQVAFWPPTFGQGTKVEIKR

Kd [6]: 54000 nM | MRC5 ND50 [7]: 770 nM
B10: ABT2-42 (other)
VL: DIQMTQSPSSLSASVGDRVTITCRASQYIEKWLTWYQQKPGKAPTLLIYRGSLLQSGVPSRFSGSGSGTDFTLTISSLQPEDFATYYCQQTEYWPFTFGQGTKVEIKR
notes: VK dAb

Kd [6]: 1300 nM | MRC5 ND50 [7]: 456 nM
B11: ABT2-76 (other)
VL: DIQMTQSPSSLSASVGDRVTITCRASQSIDRWLAWYQQKPGKAPKLLIYRGSILQSGVPSRFSGSGSGTDFTLTISSLQPEDFATYYCQQVAFWPPTFGQGTKVEIKR
notes: VK dAb

Kd [6]: 110 nM | MRC5 ND50 [7]: 200 nM
B19: ABT2-108 (other)
VH: EVQLLESGGGLVQPGGSLRLSCAASGFTFAEYTMMWVRQAPGKGLEWVSRIGQDGKNTYYADSVKGRFTISRDNSKNTLYLQMNSLRAEDTAVYYCAKYTGRVGVHHLFDYWGQGTLVTSS
notes: VH dAb

Fab IL-1β ND10 [4]: 400 nM | Fab IL-1α ND10 [5]: 200 nM
B20: Fab ABT1-95/ABT2-13 (Fab, V domains shown)
VH: EVQLLESGGGLVQPGGSLRLSCAASGFTFRDYVMYWARQAPGKGLEWVSRIDPMGSSTYYADSVKGRFTISRDNSKNTLYLQMNSLRAEDTAVYYCAKPEGNFDYWGQGTLVTVSS
VL: DIQMTQSPSSLSASVGDRVTITCRASQPIHGNLRWYQQKPGKAPKLLIYNISNLQSGVPSRFSGSGSGTDFTLTISSLQPEDFATYYCQQGYRWPVTFGQGTKVEIKR
